Test results as given in US20210261648A1 (published 2021).
Positions count from the first letter of the chain named. Names and notes keep the numbering of the source. Each block holds one binder with its values, some of them ahead of it.

Key:
[1] = molecular target: T1, FcγRIIIa type V extracellular domain with C-terminal His tag (human, UniProt P08637 17-208); experiment: SPR (Biacore)
T1 construct: extracellular domain; Allotype V158 (type V); also called FcgRIIIaV; FcγRIIIaV
T1 sequence (P08637 17-208 F176V): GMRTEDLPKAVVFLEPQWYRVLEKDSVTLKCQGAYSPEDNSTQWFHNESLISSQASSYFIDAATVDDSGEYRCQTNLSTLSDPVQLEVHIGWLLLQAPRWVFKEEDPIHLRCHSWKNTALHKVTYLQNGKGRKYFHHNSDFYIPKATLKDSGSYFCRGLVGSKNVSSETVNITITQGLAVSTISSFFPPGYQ

[2] = molecular target: T2, FcγRIa extracellular domain with C-terminal His tag (human, UniProt P12314 16-292); experiment: SPR (Biacore)
T2 construct: Whole entry named; also called FcgRIa; CD64A
T2 sequence (P12314 16-292): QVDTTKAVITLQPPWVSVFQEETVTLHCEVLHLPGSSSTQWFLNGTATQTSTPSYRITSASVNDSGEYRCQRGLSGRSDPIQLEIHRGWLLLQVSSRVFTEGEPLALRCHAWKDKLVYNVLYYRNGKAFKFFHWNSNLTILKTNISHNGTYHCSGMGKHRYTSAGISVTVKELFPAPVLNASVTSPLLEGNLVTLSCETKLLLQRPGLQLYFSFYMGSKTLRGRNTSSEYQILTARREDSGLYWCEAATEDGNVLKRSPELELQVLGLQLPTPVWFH

[3] = molecular target: T3, FcγRIIb extracellular domain with C-terminal His tag (human, UniProt P31994 43-217); experiment: SPR (Biacore)
T3 construct: extracellular domain; For crystals it was expressed with kifunensine and trimmed with Endo F1; also called FcgRIIb; FcγRIIb extracellular region
T3 sequence (looked up): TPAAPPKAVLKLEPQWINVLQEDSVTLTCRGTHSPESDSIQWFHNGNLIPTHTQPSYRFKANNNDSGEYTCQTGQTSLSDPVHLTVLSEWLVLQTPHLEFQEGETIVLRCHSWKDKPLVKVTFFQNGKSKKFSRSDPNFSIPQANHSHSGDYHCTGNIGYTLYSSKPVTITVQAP

[4] = molecular target: T4, FcγRIIa type H extracellular domain with C-terminal His tag (human, UniProt P12318 34-217); experiment: SPR (Biacore)
T4 construct: extracellular domain; also called FcgRIIaH; FcγRIIa H
T4 sequence (looked up): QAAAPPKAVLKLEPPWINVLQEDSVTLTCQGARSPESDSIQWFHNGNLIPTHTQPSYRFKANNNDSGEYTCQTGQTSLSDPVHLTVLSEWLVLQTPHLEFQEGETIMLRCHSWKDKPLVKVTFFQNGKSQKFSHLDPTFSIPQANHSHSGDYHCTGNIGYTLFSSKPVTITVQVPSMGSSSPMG

[5] = molecular target: T5, FcγRIIa type R extracellular domain with C-terminal His tag (human, UniProt P12318 34-217); experiment: SPR (Biacore), antibody captured, FcγR as analyte
T5 chain: T4 sequence (looked up) with H134R

[6] = molecular target: T6, FcγRIa extracellular domain with C-terminal His tag (human, UniProt P12314 16-292); experiment: SPR (Biacore), antibody captured, FcγR as analyte
T6 construct: also called FcgRIa; not shown: His tag attached to the C terminus
T6 sequence (P12314 16-292): as the sequence (P12314 16-292) above

[7] = molecular target: T7, FcγRIIb extracellular domain with C-terminal His tag (human, UniProt P31994 43-217); experiment: SPR (Biacore), antibody captured, FcγR as analyte
T7 construct: extracellular domain; For crystallography it was expressed with kifunensine and trimmed with Endo F1; also called FcgRIIb; FcγRIIb extracellular region; not shown: His tag attached to the C terminus
T7 sequence (looked up): T3 sequence (looked up)

[8] = molecular target: T5, FcγRIIa type R extracellular domain …; experiment: SPR; KD of IL6R-B3/IL6R-L divided by KD of the variant
[9] = molecular target: T7, FcγRIIb extracellular domain with …; experiment: as above
[10] = molecular target: T7, FcγRIIb extracellular domain with …; experiment: SPR; KD for FcγRIIaH divided by KD for FcγRIIb
[11] = molecular target: T7, FcγRIIb extracellular domain with …; experiment: SPR; KD for FcγRIIaR divided by KD for FcγRIIb
[12] = molecular target: T8, FcγRIa extracellular domain with C-terminal His tag (human, UniProt P12314 16-292); experiment: SPR, captured antibody, FcgR analyte
T8 construct: also called FcgRIa
T8 sequence (P12314 16-292): as the sequence (P12314 16-292) above
Method: (§1) Relative binding activities were calculated for the results of analyzing interactions with the respective FcγRs according to the following method.

[13] = molecular target: T9, FcγRIIIa type V extracellular domain with C-terminal His tag (human, UniProt P08637 17-208); experiment: SPR, captured antibody, FcgR analyte
T9 construct: extracellular domain; also called FcgRIIIaV; FcγRIIIaV
T9 sequence (P08637 17-208 F176V): as the sequence (P08637 17-208 F176V) above
Method: as §1

[14] = molecular target: T10, FcγRIIb extracellular domain with C-terminal His tag (human, UniProt P31994 43-217); experiment: SPR, captured antibody, FcgR analyte
T10 construct: extracellular domain; also called FcgRIIb
T10 sequence (looked up): T3 sequence (looked up)
Method: as §1

[15] = molecular target: T11, FcγRIIa type H extracellular domain with C-terminal His tag (human, UniProt P12318 34-217); experiment: SPR, captured antibody, FcgR analyte
T11 construct: extracellular domain; also called FcgRIIaH; FcγRIIa H
T11 sequence (looked up): T4 sequence (looked up)
Method: as §1

B2: IL6R-BP567/IL6R-L (antibody, human IgG1, kappa)
heavy: QVQLQESGPGLVKPSETLSLTCAVSGHSISHDHAWSWVRQPPGEGLEWIGFISYSGITNYNPSLQGRVTISRDNSKNTLYLQMNSLRAEDTAVYYCARSLARTTAMDYWGEGTLVTVSSASTKGPSVFPLAPSSKSTSGGTAALGCLVKDYFPEPVTVSWNSGALTSGVHTFPAVLQSSGLYSLSSVVTVPSSSLGTQTYICNVNHKPSNTKVDKKVEPKSCDKTHTCPPCPAPDLLGGDSVFLFPPKPKDTLMISRTPEVTCVVIDVAEEDGEVKFNWYVDGVEVHNAKTKPREEQDNSTYRVVSVLTVLHQDWLNGKEYKCKVSNKALPAPIEKTISKAKGQPREPQVYTLPPSRDELTKNQVSLTCLVKGFYPSDIAVEWESNGQPENNYKTTPPVLDSDGSFFLYSKLTVDKSRWQQGNVFSCSVMHEALHNHYTQESLSLSP
light: not shown
notes: Anti-human IL-6R IgG1; alterations introduced into IL6R-B3 (G1d with K439E)
Kd [5]: 890 nM
Kd [6]: 0.21 nM
Kd [7]: 14 nM
KD(IIaR) of the parent polypeptide/KD(IIaR) of the altered polypeptide [8]: 1.2
KD(IIb) of the parent polypeptide/KD(IIb) of the altered polypeptide [9]: 225
KD(IIaH)/KD(IIb) [10]: 1230
KD(IIaR)/KD(IIb) [11]: 64.4

B3: IL6R-BP199/IL6R-L (antibody, human IgG1, kappa)
heavy: B2 heavy with I266V, A269S, E270H, G273P, D298Y, K328D, A332R
light: not shown
relative binding activity [12]: 112 relative (IL6R-BF648/IL6R-L = 100)
relative binding activity [13]: 103 relative (IL6R-BF648/IL6R-L = 100)
relative binding activity [14]: 144 relative (IL6R-BF648/IL6R-L = 100)

B4: IL6R-BP562/IL6R-L (antibody, human IgG1, kappa)
heavy: B2 heavy with D235E, G239D, I266V, A269S, E270D, E274D, A332R
light: not shown
notes: as for B2
Kd [5]: 680 nM
Kd [6]: 25 nM
Kd [7]: 24 nM
KD(IIaR) of the parent polypeptide/KD(IIaR) of the altered polypeptide [8]: 1.6
KD(IIb) of the parent polypeptide/KD(IIb) of the altered polypeptide [9]: 131
KD(IIaH)/KD(IIb) [10]: 466
KD(IIaR)/KD(IIb) [11]: 29

B5: IL6R-BP211/IL6R-L (antibody, human IgG1, kappa)
heavy: B2 heavy with I266V, A269S, E270D, D298Y, K328A, A332R
light: not shown
relative binding activity [12]: 128 relative (IL6R-BF648/IL6R-L = 100)
relative binding activity [13]: 87 relative (IL6R-BF648/IL6R-L = 100)
relative binding activity [14]: 165 relative (IL6R-BF648/IL6R-L = 100)

B6: IL6R-BP207/IL6R-L (antibody, human IgG1, kappa)
heavy: B2 heavy with I266V, A269S, E270H, G273P, D298Y, A332R
light: not shown
relative binding activity [12]: 74 relative (IL6R-BF648/IL6R-L = 100)
relative binding activity [13]: 97 relative (IL6R-BF648/IL6R-L = 100)
relative binding activity [14]: 124 relative (IL6R-BF648/IL6R-L = 100)

B8: IL6R-BP213/IL6R-L (antibody, human IgG1, kappa)
heavy: B2 heavy with I266V, A269S, E270D, D298Y, A332R
light: not shown
relative binding activity [12]: 118 relative (IL6R-BF648/IL6R-L = 100)
relative binding activity [15]: 123 relative (IL6R-BF648/IL6R-L = 100)
relative binding activity [13]: 100 relative (IL6R-BF648/IL6R-L = 100)
relative binding activity [14]: 169 relative (IL6R-BF648/IL6R-L = 100)

Further lines, results first:

binding result [1]: binds
binding result [2]: binds
fold increase of binding against IL6R-BP230/IL6R-L [3]: 1.2 times
binding result [4]: binds
B1: IL6R-BP473/IL6R-L (antibody, human IgG1, kappa)
heavy: B2 heavy with G239D, I266V, A269S, E270D, A329G, A332R
light: not shown

binding result [1]: binds
binding result [2]: binds
binding result [4]: binds
B7: IL6R-BP471/IL6R-L (antibody, human IgG1, kappa)
heavy: B2 heavy with G239D, I266V, A269S, E270D, A332R, P333S
light: not shown

Kd [5]: 680 nM
Kd [6]: 0.19 nM
Kd [7]: 15 nM
KD(IIaR) of the parent polypeptide/KD(IIaR) of the altered polypeptide [8]: 1.6
KD(IIb) of the parent polypeptide/KD(IIb) of the altered polypeptide [9]: 211
KD(IIaH)/KD(IIb) [10]: 748
KD(IIaR)/KD(IIb) [11]: 46.1
B9: IL6R-BP568/IL6R-L (antibody, human IgG1, kappa)
heavy: B2 heavy with D298Y
light: not shown
notes: as for B2

binding result [1]: binds
binding result [2]: binds
binding result [4]: binds
B10: IL6R-BP477/IL6R-L (antibody, human IgG1, kappa)
heavy: B2 heavy with G239D, I266V, A269S, E270D, A329G, A332R, P333S
light: not shown
